Laboratory results from the supplement of paper PMC5998384.

Assays:
HeLa Kyoto [1] = assay: solubility in G1/S (NP-40 vs SDS abundance) (log2 ratio); higher = more soluble; conditions: cell cycle stage: G1/S
HeLa Kyoto [2] = assay: solubility change mitosis vs G1/S (difference of NP-40 vs SDS log2 ratios) (log2 ratio difference); higher = more soluble in mitosis
HeLa Kyoto [3] = assay: thermal stability score vs G1/S (z-score of summed log2 fold changes over temperatures); higher = more thermally stable than in G1/S
[4] = cell cycle stage: early G1 (4.5 h after nocodazole release)
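For solubility change mitosis vs G1/S (difference of NP-40 vs SDS log2 ratios) in this document: synchronized HeLa Kyoto cells (double thymidine block for G1/S, nocodazole release for mitosis), protein amounts in NP-40 versus SDS lysates quantified by mass spectrometry, three biological replicates.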
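For solubility in G1/S (NP-40 vs SDS abundance) in this document: HeLa Kyoto cells arrested at G1/S by double thymidine block, proteins quantified by TMT10plex mass spectrometry in mild NP-40 versus SDS extracts, three biological replicates.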
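For thermal stability score vs G1/S (z-score of summed log2 fold changes over temperatures) in this document: synchronized HeLa Kyoto cells, proteins quantified by TMT10plex mass spectrometry, three biological replicates, mitosis taken 0.5 h after nocodazole release, G1/S directly after double thymidine block.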

Sequence of NPTN (chain, as listed by the source): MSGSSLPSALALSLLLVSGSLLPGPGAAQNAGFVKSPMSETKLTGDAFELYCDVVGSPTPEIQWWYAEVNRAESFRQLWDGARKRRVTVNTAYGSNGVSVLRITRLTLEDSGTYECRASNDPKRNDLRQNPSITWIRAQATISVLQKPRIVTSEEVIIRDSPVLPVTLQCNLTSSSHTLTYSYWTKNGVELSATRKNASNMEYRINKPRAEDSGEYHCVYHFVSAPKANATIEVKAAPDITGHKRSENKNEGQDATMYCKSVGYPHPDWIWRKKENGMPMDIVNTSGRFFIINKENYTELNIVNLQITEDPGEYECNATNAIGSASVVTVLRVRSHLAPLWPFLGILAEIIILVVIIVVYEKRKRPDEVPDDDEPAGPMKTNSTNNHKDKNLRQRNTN

NPTN
solubility in G1/S (log2) (HeLa Kyoto [1]): 0.36
solubility change mitosis (log2) (HeLa Kyoto [2]): 0.245
thermal stability score (HeLa Kyoto [3]; [4]): -1.2
thermal stability score (HeLa Kyoto [3]; cell cycle stage: mitosis): -2.14

MASDASHALEAALEQMDGIIAGTKTGADLSDGTCEPGLASPASYMNPFPVLHLIEDLRLALEMLELPQERAALLSQIPGPTAAYIKEWFEESLSQVNHHSAASNETYQERLARLEGDKESLILQVSVLTDQVEAQGEKIRDLEVCLEGHQVKLNAAEEMLQQELLSRTSLETQKLDLMTEVSELKLKLVGMEKEQREQEEKQRKAEELLQELRHLKIKVEELENERNQYEWKLKATKAEVAQLQEQVALKDAEIERLHSQLSRTAALHSESHTERDQEIQRLKMGMETLLLANEDKDRRIEELTGLLNQYRKVKEIVMVTQGPSERTLSINEEEPEGGFSKWNATNKDPEELFKQEMPPRCSSPTVGPPPLPQKSLETRAQKKLSCSLEDLRSESVDKCMDGNQPFPVLEPKDSPFLAEHKYPTLPGKLSGATPNGEAAKSPPTICQPDATGSSLLRLRDTESGWDDTAVVNDLSSTSSGTESGPQSPLTPDGKRNPKGIKKFWGKIRRTQSGNFYTDTLGMAEFRRGGLRATAGPRLSRTRDSKGQKSDANAPFAQWSTERVCAWLEDFGLAQYVIFARQWVSSGHTLLTATPQDMEKELGIKHPLHRKKLVLAVKAINTKQEEKSALLDHIWVTRWLDDIGLPQYKDQFHESRVDRRMLQYLTVNDLLFLKVTSQLHHLSIKCAIHVLHVNKFNPHCLHRRPADESNLSPSEVVQWSNHRVMEWLRSVDLAEYAPNLRGSGVHGGLIILEPRFTGDTLAMLLNIPPQKTLLRRHLTTKFNALIGPEAEQEKREKMASPAYTPLTTTAKVRPRKLGFSHFGNIRKKKFDESTDYICPMEPSDGVSDSHRVYSGYRGLSPLDAPELDGLDQVGQIS [PPFIBP2]
solubility in G1/S (log2) (HeLa Kyoto [1]): 0.218
solubility change mitosis (log2) (HeLa Kyoto [2]): -0.265
thermal stability score (HeLa Kyoto [3]; [4]): 0.328
thermal stability score (HeLa Kyoto [3]; cell cycle stage: mitosis): 0.498

MAATAVAAAVAGTESAQGPPGPAASLELWLNKATDPSMSEQDWSAIQNFCEQVNTDPNGPTHAPWLLAHKIQSPQEKEALYALTVLEMCMNHCGEKFHSEVAKFRFLNELIKVLSPKYLGSWATGKVKGRVIEILFSWTVWFPEDIKIRDAYQMLKKQGIIKQDPKLPVDKILPPPSPWPKSSIFDADEEKSKLLTRLLKSNHPEDLQAANRLIKNLVKEEQEKSEKVSKRVSAVEEVRSHVKVLQEMLSMYRRPGQAPPDQEALQVVYERCEKLRPTLFRLASDTTDDDDALAEILQANDLLTQGVLLYKQVMEGRVTFGNRVTSSLGDIPVSRVFQNPAGCMKTCPLIDLEVDNGPAQMGTVVPSLLHQDLAALGISDAPVTGMVSGQNCCEEKRNPSSSTLPGGGVQNPSADRNLLDLLSAQPAPCPLNYVSQKSVPKEVPPGTKSSPGWSWEAGPLAPSPSSQNTPLAQVFVPLESVKPSSLPPLIVYDRNGFRILLHFSQTGAPGHPEVQVLLLTMMSTAPQPVWDIMFQVAVPKSMRVKLQPASSSKLPAFSPLMPPAVISQMLLLDNPHKEPIRLRYKLTFNQGGQPFSEVGEVKDFPDLAVLGAA [GGA2]
solubility in G1/S (log2) (HeLa Kyoto [1]): 0.448
solubility change mitosis (log2) (HeLa Kyoto [2]): -0.32
thermal stability score (HeLa Kyoto [3]; [4]): 0.693
thermal stability score (HeLa Kyoto [3]; cell cycle stage: mitosis): 1.05

MALVSADSRIAELLTELHQLIKQTQEERSRSEHNLVNIQKTHERMQTENKISPYYRTKLRGLYTTAKADAEAECNILRKALDKIAEIKSLLEERRIAAKIAGLYNDSEPPRKTMRRGVLMTLLQQSAMTLPLWIGKPGDKPPPLCGAIPASGDYVARPGDKVAARVKAVDGDEQWILAEVVSYSHATNKYEVDDIDEEGKERHTLSRRRVIPLPQWKANPETDPEALFQKEQLVLALYPQTTCFYRALIHAPPQRPQDDYSVLFEDTSYADGYSPPLNVAQRYVVACKEPKKK [SGF29]
solubility in G1/S (log2) (HeLa Kyoto [1]): 0.435
solubility change mitosis (log2) (HeLa Kyoto [2]): 0.314
thermal stability score (HeLa Kyoto [3]; [4]): -0.0915
thermal stability score (HeLa Kyoto [3]; cell cycle stage: mitosis): -0.207

MTGLYELVWRVLHALLCLHRTLTSWLRVRFGTWNWIWRRCCRAASAAVLAPLGFTLRKPPAVGRNRRHHRHPRGGSCLAAAHHRMRWRADGRSLEKLPVHMGLVITEVEQEPSFSDIASLVVWCMAVGISYISVYDHQGIFKRNNSRLMDEILKQQQELLGLDCSKYSPEFANSNDKDDQVLNCHLAVKVLSPEDGKADIVRAAQDFCQLVAQKQKRPTDLDVDTLASLLSSNGCPDPDLVLKFGPVDSTLGFLPWHIRLTEIVSLPSHLNISYEDFFSALRQYAACEQRLGK [NUS1]
solubility in G1/S (log2) (HeLa Kyoto [1]): 0.00319
solubility change mitosis (log2) (HeLa Kyoto [2]): 0.162
thermal stability score (HeLa Kyoto [3]; [4]): -0.859
thermal stability score (HeLa Kyoto [3]; cell cycle stage: mitosis): 0.124

MKGFKLSCTASNSNRSTPACSPILRKRSRSPTPQNQDGDTMVEKGSDHSSDKSPSTPEQGVQRSCSSQSGRSGGKNSKKSQSWYNVLSPTYKQRNEDFRKLFKQLPDTERLIVDYSCALQRDILLQGRLYLSENWICFYSNIFRWETLLTVRLKDICSMTKEKTARLIPNAIQVCTDSEKHFFTSFGARDRTYMMMFRLWQNALLEKPLCPKELWHFVHQCYGNELGLTSDDEDYVPPDDDFNTMGYCEEIPVEENEVNDSSSKSSIETKPDASPQLPKKSITNSTLTSTGSSEAPVSFDGLPLEEEALEGDGSLEKELAIDNIMGEKIEMIAPVNSPSLDFNDNEDIPTELSDSSDTHDEGEVQAFYEDLSGRQYVNEVFNFSVDKLYDLLFTNSPFQRDFMEQRRFSDIIFHPWKKEENGNQSRVILYTITLTNPLAPKTATVRETQTMYKASQESECYVIDAEVLTHDVPYHDYFYTINRYTLTRVARNKSRLRVSTELRYRKQPWGLVKTFIEKNFWSGLEDYFRHLESELAKTESTYLAEMHRQSPKEKASKTTTVRRRKRPHAHLRVPHLEEVMSPVTTPTDEDVGHRIKHVAGSTQTRHIPEDTPNGFHLQSVSKLLLVISCVICFSLVLLVILNMMLFYKLWMLEYTTQTLTAWQGLRLQERLPQSQTEWAQLLESQQKYHDTELQKWREIIKSSVMLLDQMKDSLINLQNGIRSRDYTSESEEKRNRYH [GRAMD1B]
solubility in G1/S (log2) (HeLa Kyoto [1]): -0.0228
solubility change mitosis (log2) (HeLa Kyoto [2]): 0.151
thermal stability score (HeLa Kyoto [3]; [4]): -0.0752
thermal stability score (HeLa Kyoto [3]; cell cycle stage: mitosis): -0.742

PTEN
solubility in G1/S (log2) (HeLa Kyoto [1]): -0.27
solubility change mitosis (log2) (HeLa Kyoto [2]): 0.174
thermal stability score (HeLa Kyoto [3]; [4]): -0.257
thermal stability score (HeLa Kyoto [3]; cell cycle stage: mitosis): 0.0266
